The target of experiment [1] is mKRb, recombinant fragment spanning the ketoreductase domain from module 7 of MLSB (Mycobacterium ulcerans). Briefly: ITC; ACP species (1 mM) in the syringe injected into mKRb (50 uM) with 5 mM NADP+ in the cell; 25 mM HEPES, 50 mM NaCl, 0.01% NaN3, pH 7.5, 30 °C; single binding site model; mean of three technical replicates. In general terms: In ITC the heat of successive injections is recorded.

For experiment [2] the target is unchanged. The experiment in a line: ITC; ACP species (1 mM) in the syringe injected into mKRb (50 uM) with 5 mM NADPH in the cell; 25 mM HEPES, 50 mM NaCl, 0.01% NaN3, pH 7.5, 30 °C; single binding site model; mean of three technical replicates.

The term Kd denotes the concentration at which binding is half-saturated. For the substance “apo mH0ACPb, N-terminally extended B1-type ACP domain from module 7 of MLSB (domain or fragment)”, the dissociation constant Kd in experiment [1] amounted to 1380 nM; in experiment [2], 1430 nM.

What is called stoichiometry N is the number of molecules, sites or subunits per partner or assembly. With “apo mACPb, short B1-type ACP domain from module 7 of MLSB (domain or fragment)”, the Kd in experiment [1] was 2600 nM; in experiment [2], 2200 nM. Further, the stoichiometry N in experiment [2] stood at 1.

Regarding “holo mH0ACPa, N-terminally extended A1-type ACP domain from module 5 of MLSA1 with Ppant (from UniProt Q6MZA4 11087-11185) (domain or fragment)”, in experiment [2], the Kd is 630 nM.

Regarding “holo mACPb, short B1-type ACP domain from module 7 of MLSB with Ppant (domain or fragment)”, the figures for the Kd in experiment [1] and in experiment [2] were 610 nM and 750 nM, respectively.

Turning to “apo mH0ACPa, N-terminally extended A1-type ACP domain from module 5 of MLSA1 (from UniProt Q6MZA4 11087-11185) (domain or fragment)”, in experiment [2], the equilibrium dissociation constant (Kd) came to 2200 nM.

For “holo mH0ACPb, N-terminally extended B1-type ACP domain from module 7 of MLSB with Ppant (domain or fragment)”, the Kd in experiment [1] is 710 nM; in experiment [2] it was 690 nM.

The values are drawn from paper PMC6382882.
